How the values were obtained:
HLA-A*0101 (human) = assay: inhibition of 125I-labelled probe peptide binding to purified HLA, gel filtration; standard peptide
HLA-A*2902 (human) [1] = assay: as above
HLA-A*2902 (human) [2] = assay: inhibition of 125I-labelled probe peptide binding to purified HLA, gel filtration; standard peptide (allele listed again under supertype A24)
HLA-A*3002 (human) [3] = assay: inhibition of 125I-labelled probe peptide binding to purified HLA, gel filtration; standard peptide
HLA-A*3002 (human) [4] = assay: inhibition of 125I-labelled probe peptide binding to purified HLA, gel filtration; standard peptide (allele listed again under supertype A24)
HLA-DRB1*0901 (human) = molecular target: T1, HLA-DRB1*0901 (human)
T1 chain 1: not shown
T1 chain 2: not shown

Q: With YTAVVPLVY (modifications not checked) as the binder, how does the IC50 (HLA-A*0101 (human)) read?
A: The IC50 was 5 nM.

Q: What about the IC50 (HLA-A*2902 (human) [1]) of the same binder?
A: Its IC50 is 5 nM.

Q: And the IC50 (HLA-A*2902 (human) [2])?
A: Its IC50 is 5 nM.

Q: With RISGVDRYY (modifications not checked) as the binder, how does the IC50 (HLA-A*3002 (human) [3]) read?
A: Its IC50 is 3 nM.

Q: And the IC50 (HLA-A*3002 (human) [4])?
A: Its IC50 is 3 nM.

Q: How did the IC50 (HLA-DRB1*0901 (human)) turn out when AKFVAAWTLKAAA (modifications not checked) was run?
A: Its IC50 is 75 nM.

Reference: patent US20070014810A1, “Inducing cellular immune responses to human papillomavirus using peptide and nucleic acid compositions” (priority 2003, published 2007)
